Results reported in article doi:10.1101/2025.04.29.650001 (bioRxiv, 2025).
Positions count from the first letter of the chain named.

B1: Fluoroacetate dehalogenase (FAcD) wild type (enzyme, Rhodopseudomonas palustris, UniProt Q6NAM1 1-302, looked up)
chain: MPDLADLFPGFGSEWINTSSGRIFARVGGDGPPLLLLHGFPQTHVMWHRVAPKLAERFKVIVADLPGYGWSDMPESDEQHTPYTKRAMAKQLIEAMEQLGHVHFALAGHDRGARVSYRLALDSPGRLSKLAVLDILPTYEYWQRMNRAYALKIYHWSFLAQPAPLPENLLGGDPDFYVKAKLASWTRAGDLSAFDPRAVEHYRIAFADPMRRHVMCEDYRAGAYADFEHDKIDVEAGNKIPVPMLALWGASGIAQSAATPLDVWRKWASDVQGAPIESGHFLPEEAPDQTAEALVRFFSAAP
B2: Fluoroacetate dehalogenase (FAcD) Ser157Thr (enzyme, Rhodopseudomonas palustris, UniProt Q6NAM1 1-302, looked up)
chain: B1 chain with S157T
B3: Fluoroacetate dehalogenase (FAcD) Ser157Ala (enzyme, Rhodopseudomonas palustris, UniProt Q6NAM1 1-302, looked up)
chain: B1 chain with S157A

Molecular target: the molecule itself
Assay: crystal structure
B1: binds. B2: binds. B3: binds.
